Test results published in US20050059087A1 (Amgen, published 2005).
Positions count from the first letter of the chain named. Numbers in names are those of the source. No end group written: not given here.

Columns and labels:
[1] = target: T1, Pep-3, NH2-LEEKKGNYVVTDHG-OH (human); experiment: Biacore 2000 SPR, mAb immobilised, pep-3 analyte; 95% confidence interval in parentheses
T1 construct: Free peptide used in Biacore and KinExA (MW 1590 Da)
T1 peptide: H-LEEKKGNYVVTDHG-OH
From the text: (§1) Two CM5 sensor chips were used in total to immobilize both mAbs. […] Biacore 2000 optical biosensors were used for all studies.
(§2) Next, pep-3 was flowed across the mAb immobilized biosensor surfaces. […] Blank injections were run every sixth sample throughout the injection series for double referencing purposes.

[2] = target: T2, wild type EGFR expressed by cells (NR6 Wt, A431, A549, H80, SF-539, A498, SKRC-52) (human, UniProt P00533 25-1210); experiment: FACS on H80 glioblastoma cells (wild type EGFR only), 30 min on ice, PE goat anti-human IgG; filled histogram = irrelevant IgG
T2 construct: Also used here for Western blots of cell lysates; also called wtEGFR; Wt receptor
Description: The specificity of the purified antibodies was ascertained by performing FACS analysis on a panel of cell lines. H80, a human glioblastoma line, and H1477 (H80-EGFRvIII) that expresses high levels of EGFRvIII, A431, a human epidemoid carcinoma line, and A549, a human lung carcinoma cell line were used as the cell lines. All cell lines were from Dr. Bigner except A431 and A549, which were from ATCC (Rockville, Md., U.S.A.). Cells were incubated on ice with 10 μg/ml of the respective antibody for 30 min., washed in FACS buffer and subsequently incubated with PE-conjugated goat anti-human IgG from Jackson ImmunoResearch (West Grove, Pa., U.S.A.).

[3] = target: T3, EGFRvIII, full length, expressed by transfected cells (NR6 M, H1477, 300.19/EGFRvIII) (human, UniProt P00533 298-1210); experiment: cell-based or functional assay
[4] = target: T3, EGFRvIII, full length, expressed by …; experiment: FACS on NR6 M cells, antibody at 0.25 µg/ml with SS Alexa anti-human IgG Fab, 37° C. for 1 hr, no glutathione (total cell-associated fluorescence)
Description: XenoMax derived IgG1 recombinant antibodies were expressed, purified and quantitated as described previously. Antibodies were further assayed for their ability to internalize the EGFRvIII receptor in NR6 M cells. […] The cells were washed with cold 10% FCS in PBS and secondary antibody (SS Alexa antihuman IgG Fab) at 3 μg/ml Fab was added and incubated for 7 mins on ice. The cells were washed with cold 10% FCS in PBS once and then resuspended in cold media. Next, two sets of the triplicate were incubated at 37° C. and the remaining set was incubated at 4° C. for 1 hr. After that the cells incubated at 4° C. and one set of the cells incubated at 37° C. were treated with glutathione (as previously mentioned) for 1 hr on ice. Then the cells were washed and resuspended in 100 μl of cold 1% FCS in PBS and analyzed by FACS. The % internalization was calculated from the geometric mean obtained from the FACS analysis [(mean at 37° C. with glutathione—mean at 4° C. with glutathione)/(mean at 37° C. without glutathione—mean at 4 C with glutathione)].

[5] = target: T1, Pep-3, NH2-LEEKKGNYVVTDHG-OH; experiment: Biacore SPR, mAb immobilised, Pep-3 analyte (single experiment of Example 25)
[6] = target: T1, Pep-3, NH2-LEEKKGNYVVTDHG-OH; experiment: KinExA, pep3; KinExA (solution equilibrium), pep3; not Biacore
[7] = target: T1, Pep-3, NH2-LEEKKGNYVVTDHG-OH; experiment: Biacore 2000 SPR, mAb immobilised, pep-3 analyte; 95% confidence interval in parentheses
From the text: as §1, §2

[8] = target: T1, Pep-3, NH2-LEEKKGNYVVTDHG-OH; experiment: Biacore 2000 SPR, steady-state (equilibrium) binding model, pep-3 analyte
From the text: The first step in these examples involved the immobilization of 5,600 resonance units (RU) to 8,000 RU of each mAb tested to one flow cell (Fc) of a CM5 sensor chip using standard EDC/NHS coupling chemistry. […] Three CM5 sensor chips were used in total to immobilize all mutant mAbs with a unique mAb immobilized to each flow cell. […] Biacore 2000 optical biosensors were used for all studies.

[9] = target: T1, Pep-3, NH2-LEEKKGNYVVTDHG-OH; experiment: Biacore 2000 SPR, mAb immobilised, pep-3 analyte (range between runs)
From the text: as §1, §2

[10] = target: T4, EGFRvIII-rabbit Fc fusion protein (human; rabbit, UniProt P00533 298-645); experiment: ELISA, minilipofection supernatant titrated 1:2 on EGFRvIII-Rab Ig Fc fusion protein (1.5 ug/ml)
T4 construct: made in 293F cells; also called EGFRvIII-RbFc; EGFRvIII-Rab Ig Fc fusion protein; not shown: rabbit IgG Hinge-CH2-CH3 (721 bp fragment)
Description: The secretion ELISA tests were performed as follows. […] The plates were washed five times with dH₂O. Recombinant antibodies were titrated 1:2 for 7 wells from the undiluted minilipofection supernatant. The plates were washed five times with dH₂O. A goat anti-human IgG Fc-specific HRP-conjugated antibody was added at a final concentration of 1 μg/mL for 1 hour at RT for the secretion plates and binding plates detected with 1 μg/ml Rb anti Hu Fc for 1 hour at room temperature. The plates were washed five times with dH₂O. The plates were developed with the addition of TMB for 30 minutes and the ELISA was stopped by the addition of 1 M phosphoric acid. Each ELISA plate was analyzed to determine the optical density of each well at 450 nm.

[11] = target: T2, wild type EGFR expressed by cells (NR6 …); experiment: FACS, 10 ug/ml antibody, H80, A431 and A549 cells
[12] = target: T5, EGFRvIII peptide-OVA (PEP3 14-mer conjugated to ovalbumin) (human, also: conjugated to OVA, chemistry not given here); experiment: XenoMax screening
T5 construct: also called VIII-pep-OVA; muEGFr
T5 peptide: LEEKKGNYVVTDHC

[13] = target: T1, Pep-3, NH2-LEEKKGNYVVTDHG-OH; experiment: Biacore 2000 SPR, mAb immobilised, pep-3 analyte, 23 C
Description: Standard EDC/NHS and carbohydrate coupling was used to covalently immobilize mAbs to a CM5 sensor chip. To minimize mass transport and crowding mAbs were immobilized at levels that gave a maximum antigen binding response (Rₘₐₓ) of no more than 50-100 RU. A reference flow cell on each chip was activated and blocked with no mAb immobilization to serve as a control.
All Biacore kinetic experiments were conducted at 23° C. […] Antigen samples were randomly injected over the biosensor surface in triplicate at 100 μL/min. Several buffer blanks were injected intermittently over the course of an experiment for double referencing. Each pep-3 concentration and blank were injected for 90 seconds. Dissociation was followed for 13 to 180 minutes.
All Biacore sensorgrams were processed using Scrubber software (Version 1.1f, BioLogic Software, Australia). Sensorgrams were first zeroed on the y-axis and then x-aligned at the beginning of the injection. Bulk refractive index changes were removed by subtracting the reference flow cell responses. The average response of all blank injections was subtracted from all analyte and blank sensorgrams to remove systematic artifacts between the experimental and reference flow cells. CLAMP biosensor data analysis software (Version 3.40, BioLogic Software, Australia) was used to determine kₐ and kd from the processed data sets. Data from all flow cells were globally fit to a 1:1 bimolecular binding model that included a mass transport term. […] The KD was calculated from the quotient kd/kₐ.

[14] = target: T1, Pep-3, NH2-LEEKKGNYVVTDHG-OH; experiment: KinExA, pep3
Description: All KinExA experiments were conducted at room temperature (˜23° C.). For all equilibrium experiments, antigen was serially diluted into solutions having a constant mAb binding site concentration. For the first 10 titration points the dilutions were 2-fold and the 11th and 12th serial dilutions were 10-fold. The sample flow rate for all experiments was 0.25 mL/min and the labeling antibody flow rate was 0.5 mL/min. […] A sample volume of 250 μL was analyzed for the antibody-controlled experiment. Two or three replicates of each sample were measured for all equilibrium experiments. The equilibrium titration data were fit in a dual curve analysis to a 1:1 binding model using KinExA software (Version 2.4, Sapidyne Instruments).

[15] = target: EGFrVIII antigen (ELISA antigen of Examples 15, 17 and 21; form not stated) (human, UniProt P00533 298-645, limits assumed); experiment: binding of variant antibody to EGFRvIII antigen

B1: AB-EGFRvIII-XG1K-13.1.2 (antibody, V domains shown)
VH: QVQLVESGGGVVQPGRSLRLSCAASGFTFSSYGMHWVRQAPGKGLEWVAVIWYDGSNKYYVDSVKGRFTISRDNSKNTLYLQMNSLRAEDTAVYYCARDGWQQLAPFDYWGQGTLVTVSS
VL: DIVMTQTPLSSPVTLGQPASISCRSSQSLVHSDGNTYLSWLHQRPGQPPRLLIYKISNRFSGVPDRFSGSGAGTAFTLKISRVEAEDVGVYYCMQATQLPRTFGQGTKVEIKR
[1]
  Kd: 75 nM
  koff: 0.016 s⁻¹
  kon: 210000 M⁻¹ s⁻¹
[2]
  binding result: no binding (tested: 10 µg/ml)
[3]
  % internalization: 82.5%
  FACS Geometric mean, With glutathione 4° C.: 5.38 geometric mean
  FACS Geometric mean, With glutathione 37° C.: 19.2 geometric mean
[4]
  FACS Geometric mean (without glutathione, 37° C.): 22.1 geometric mean
[5]
  Kd: 67 nM
[6]
  Kd: 0.025 nM
[7]
  Kd: 75 nM
  koff: 0.016 s⁻¹
  kon: 210000 M⁻¹ s⁻¹

B2: 13.1.2 variant L99N-4.1 (antibody, V domains shown)
VH: B1 VH
VL: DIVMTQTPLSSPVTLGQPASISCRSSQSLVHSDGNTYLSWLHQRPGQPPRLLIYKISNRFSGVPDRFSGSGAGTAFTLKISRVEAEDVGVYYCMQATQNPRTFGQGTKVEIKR
notes: also called Leu99Asn; 99Asn
[8]
  Kd: 1400 nM

B3: 13.1.2 variant L99T-5.3 (antibody, V domains shown)
VH: B1 VH
VL: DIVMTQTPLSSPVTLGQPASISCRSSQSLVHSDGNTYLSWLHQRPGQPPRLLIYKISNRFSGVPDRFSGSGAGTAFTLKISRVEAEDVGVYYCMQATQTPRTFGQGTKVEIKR
notes: also called Leu99Thr; 99Thr
[9]
  Kd: 54 to 70 nM
[7]
  Kd: 60 nM
  koff: 0.013 s⁻¹
  kon: 216000 M⁻¹ s⁻¹

B4: SC-EGFRvIII-XG1-139 (antibody, V domains shown)
VH: EVQVLESGGGLVQPGGSLRLSCAASGFTFSSYAMSWVRQAPGKGLEWVSAISGSGGSTNYADSVKGRFTISRDNSKNTLYLQMNSLRAEDTAVYYCAGSSGWSEYWGQGTLVTVSS
VL: DIQMTQSPSSLSASVGDRVTITCRASQGIRNNLAWYQQKPGKAPKRLIYAASNLQSGVPSRFTGSGSGTEFTLIVSSLQPEDFATYYCLQHHSYPLTSGGGTKVEIK
notes: also called SC139; sc139
[10]
  Titer, antigen binding: > 64 reciprocal dilution
[11]
  staining relative to ABX-EGF (E7.6.3): 10%
[12]
  binding result: binds
[3]
  % internalization: 80.8%
  FACS Geometric mean, With glutathione 4° C.: 4.88 geometric mean
  FACS Geometric mean, With glutathione 37° C.: 19.2 geometric mean
[4]
  FACS Geometric mean (without glutathione, 37° C.): 22.6 geometric mean
[13]
  Kd: 290 nM
  koff: 0.00298 s⁻¹
  kon: 10300 M⁻¹ s⁻¹

B5: SC-EGFRvIII-XG1-131 (antibody, V domains shown)
VH: QVQLVESGGGVVQSGRSLRLSCAASGFTFRNYGMHWVRQAPGKGLEWVAVIWYDGSDKYYADSVRGRFTISRDNSKNTLYLQMNSLRAEDTAVYYCARDGYDILTGNPRDFDYWGQGTLVTVSS
VL: DTVMTQTPLSSHVTLGQPASISCRSSQSLVHSDGNTYLSWLQQRPGQPPRLLIYRISRRFSGVPDRFSGSGAGTDFTLEISRVEAEDVGVYYCMQSTHVPWTFGQGTKVEIK
notes: also called SC131; sc131
[12]
  binding result: binds
[14]
  Kd: 0.05 pM

B6: mAb 131 variant, light chain V99F (antibody, V domains shown)
VH: B5 VH
VL: B5 VL with V99F
notes: also called V99 changed to F
[15]
  binding result: no binding
